Laboratory results from US20050107584A1.
Blank lines part the entries; values can stand above or below the binder they belong to.

Assays:
[1] = biological target: human anti-β2GPI mAb ILA-1; experiment: competition ELISA, β2GPI-coated plates, 10 µM peptide
human anti-β2GPI mAb G-3 [2] = experiment: as above
human anti-β2GPI mAb G-3 [3] = experiment: cell-based or functional assay
human anti-β2GPI mAb G-3 [4] = experiment: cyto-ELISA on HUVEC coated with 10 µg/ml β2GPI, 10 µM peptide
[5] = biological target: human anti-β2GPI mAb ILA-1; experiment: cell-based or functional assay
[6] = biological target: human anti-β2GPI mAb ILA-1; experiment: competition ELISA, mAb 10 µg/ml preincubated with peptide, β2GPI-coated plates, 10 µM peptide
[7] = biological target: human anti-β2GPI mAb ILA-1; experiment: cyto-ELISA on HUVEC coated with 10 µg/ml β2GPI, 10 µM peptide
[8] = biological target: human anti-β2GPI mAb ILA-3; experiment: competition ELISA, β2GPI-coated plates, 10 µM peptide
[9] = biological target: human anti-β2GPI mAb ILA-3; experiment: cell-based or functional assay
[10] = biological target: human anti-β2GPI mAb ILA-3; experiment: cyto-ELISA on HUVEC coated with 10 µg/ml β2GPI, 10 µM peptide

% inhibition of ILA-1 mAb binding to β2GPI [1]: 11%
% inhibition of G-3 mAb binding to β2GPI (human anti-β2GPI mAb G-3 [2]): 98%
% inhibition of adhesion of U937 monocyte cells to HUVEC (human anti-β2GPI mAb G-3 [3]): 92%
E-selectin expression by HUVEC (ELISA O.D.) (human anti-β2GPI mAb G-3 [3]): 0.215 O.D.
ICAM-1 expression by HUVEC (ELISA O.D.) (human anti-β2GPI mAb G-3 [3]): 0.186 O.D.
VCAM-1 expression by HUVEC (ELISA O.D.) (human anti-β2GPI mAb G-3 [3]): 0.174 O.D.
% inhibition of G-3 mAb binding to HUVEC (human anti-β2GPI mAb G-3 [4]): 92%
B1: synthetic peptide C (monomer), Cys Ala Thr Leu Arg Val Tyr Lys Gly Gly (peptide)
peptide: CATLRVYKGG

% inhibition of adhesion of U937 monocyte cells to HUVEC [5]: 84%
E-selectin expression by HUVEC (ELISA O.D.) [5]: 0.239 O.D.
ICAM-1 expression by HUVEC (ELISA O.D.) [5]: 0.204 O.D.
VCAM-1 expression by HUVEC (ELISA O.D.) [5]: 0.252 O.D.
% inhibition of ILA-1 mAb binding to β2GPI [6]: 97%
% inhibition of ILA-1 mAb binding to HUVEC [7]: 95%
B2: synthetic peptide A (monomer), Asn Thr Leu Lys Thr Pro Arg Val Gly Gly (peptide)
peptide: NTLKTPRVGG

% inhibition of ILA-3 mAb binding to β2GPI [8]: 77%
% inhibition of ILA-1 mAb binding to β2GPI [1]: 10%
% inhibition of adhesion of U937 monocyte cells to HUVEC [9]: 95%
E-selectin expression by HUVEC (ELISA O.D.) [9]: 0.211 O.D.
% inhibition of ILA-3 mAb binding to HUVEC [10]: 72%
B3: synthetic peptide B (monomer), Lys Asp Lys Ala Thr Phe Gly Thr His Asp Gly (peptide)
peptide: KDKATFGTHDG
